Measured values from PMC4807369.

Target: IrmA secreted from E. coli MG1655 carrying a plasmid encoding irmA (strain MS5667) (Escherichia coli)
Assay: native gel or EMSA

“IrmA secreted from E. coli MG1655 carrying a plasmid encoding irmA (strain MS5667) (natural protein)” gave a stoichiometry N of 2.
